The record followed here is publication PMC11077067, “Protein G-quadruplex interactions and their effects on phase transitions and protein aggregation”.

Data set [1] addresses T1, Znf706 (Homo sapiens, UniProt Q9Y5V0 1-76).
T1 sequence: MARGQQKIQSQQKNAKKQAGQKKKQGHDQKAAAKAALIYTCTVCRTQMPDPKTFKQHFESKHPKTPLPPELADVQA
Nature of the data set: NMR; 37 C; FP/anisotropy: 20 mM NaPi, 100 mM KCl, 0.05% NaN3, pH 7.4, 25 C (LiCl variant: 20 mM Tris-HCl, 100 mM LiCl, pH 7.4; NaCl variant: 20 mM NaPi, 100 mM NaCl, pH 7.4); NMR: 20 mM NaPi, 100 mM KCl, 7.5% D2O, pH 7.4, 4-50 C. The conditions noted are these: protein: recombinant; tags: none (His6-SUMO cleaved); chain copies: 2; hairpin.

A further data set addresses T2, Znf706 A2C-MTSL (Homo sapiens, UniProt Q9Y5V0 1-76, A2C).
T2 sequence: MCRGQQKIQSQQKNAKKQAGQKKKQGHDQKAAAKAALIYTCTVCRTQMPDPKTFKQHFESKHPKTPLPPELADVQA
Nature of the data set: PRE NMR; 2:1 protein:DNA, 100 mM KCl, 4 C; FP/anisotropy: 20 mM NaPi, 100 mM KCl, 0.05% NaN3, pH 7.4, 25 C (LiCl variant: 20 mM Tris-HCl, 100 mM LiCl, pH 7.4; NaCl variant: 20 mM NaPi, 100 mM NaCl, pH 7.4); NMR: 20 mM NaPi, 100 mM KCl, 7.5% D2O, pH 7.4, 4-50 C. The conditions noted are these: protein: recombinant; tags: none (His6-SUMO cleaved); MTSL spin label; parallel G4.

Another data set concerns the target T3, Znf706 A2C-AF488 (Homo sapiens, UniProt Q9Y5V0 1-76, A2C).
T3 sequence: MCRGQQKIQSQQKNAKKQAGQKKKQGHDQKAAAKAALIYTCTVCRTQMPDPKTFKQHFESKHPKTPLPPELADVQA
Nature of the data set: fluorescence anisotropy; FP/anisotropy: 20 mM NaPi, 100 mM KCl, 0.05% NaN3, pH 7.4, 25 C (LiCl variant: 20 mM Tris-HCl, 100 mM LiCl, pH 7.4; NaCl variant: 20 mM NaPi, 100 mM NaCl, pH 7.4); NMR: 20 mM NaPi, 100 mM KCl, 7.5% D2O, pH 7.4, 4-50 C. The conditions noted are these: protein: recombinant, tags: none (His6-SUMO cleaved), AF488 label.

In data set [2] the target is T1, Znf706. Nature of the data set: MST; range over all G4s; less strong; exact value in figure; FP/anisotropy: 20 mM NaPi, 100 mM KCl, 0.05% NaN3, pH 7.4, 25 C (LiCl variant: 20 mM Tris-HCl, 100 mM LiCl, pH 7.4; NaCl variant: 20 mM NaPi, 100 mM NaCl, pH 7.4); NMR: 20 mM NaPi, 100 mM KCl, 7.5% D2O, pH 7.4, 4-50 C. The conditions noted are these: protein: recombinant; tags: none (His6-SUMO cleaved); chain copies: 2; label: 5' 6-FAM; hybrid G4.

Data set [3] deals with T1, Znf706. Nature of the data set: fluorescence polarization; 100 mM KCl; range over all G4s; less strong; exact value in figure; FP/anisotropy: 20 mM NaPi, 100 mM KCl, 0.05% NaN3, pH 7.4, 25 C (LiCl variant: 20 mM Tris-HCl, 100 mM LiCl, pH 7.4; NaCl variant: 20 mM NaPi, 100 mM NaCl, pH 7.4); NMR: 20 mM NaPi, 100 mM KCl, 7.5% D2O, pH 7.4, 4-50 C. The conditions noted are these: protein: recombinant; tags: none (His6-SUMO cleaved); chain copies: 2; label: 5' 6-FAM; hybrid G4.

For data set [4], the target named is T4, Znf706 N-terminal peptide (Homo sapiens, UniProt Q9Y5V0 1-35).
T4 chain: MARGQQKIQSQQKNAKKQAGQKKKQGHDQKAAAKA
Nature of the data set: fluorescence polarization; 100 mM KCl; range over three G4s; FP/anisotropy: 20 mM NaPi, 100 mM KCl, 0.05% NaN3, pH 7.4, 25 C (LiCl variant: 20 mM Tris-HCl, 100 mM LiCl, pH 7.4; NaCl variant: 20 mM NaPi, 100 mM NaCl, pH 7.4); NMR: 20 mM NaPi, 100 mM KCl, 7.5% D2O, pH 7.4, 4-50 C. The conditions noted are these: label: 5' 6-FAM. (In general: In fluorescence polarisation assays a small probe gives low polarisation when free and higher when bound to something large.)

Data set [5] has as its target T1, Znf706. Nature of the data set: MST; range over all G4s; strong; exact value in figure; FP/anisotropy: 20 mM NaPi, 100 mM KCl, 0.05% NaN3, pH 7.4, 25 C (LiCl variant: 20 mM Tris-HCl, 100 mM LiCl, pH 7.4; NaCl variant: 20 mM NaPi, 100 mM NaCl, pH 7.4); NMR: 20 mM NaPi, 100 mM KCl, 7.5% D2O, pH 7.4, 4-50 C. The conditions noted are these: protein: recombinant; tags: none (His6-SUMO cleaved); chain copies: 2; label: 5' 6-FAM; parallel G4.

The target of data set [6] is T1, Znf706. Nature of the data set: NMR; competitive titration with Bcl2SH G4; FP/anisotropy: 20 mM NaPi, 100 mM KCl, 0.05% NaN3, pH 7.4, 25 C (LiCl variant: 20 mM Tris-HCl, 100 mM LiCl, pH 7.4; NaCl variant: 20 mM NaPi, 100 mM NaCl, pH 7.4); NMR: 20 mM NaPi, 100 mM KCl, 7.5% D2O, pH 7.4, 4-50 C. The conditions noted are these: protein: recombinant; tags: none (His6-SUMO cleaved); chain copies: 2; blunt.

Data set [7] concerns the target T1, Znf706. Nature of the data set: MST; range over all G4s; weakest; exact value in figure; FP/anisotropy: 20 mM NaPi, 100 mM KCl, 0.05% NaN3, pH 7.4, 25 C (LiCl variant: 20 mM Tris-HCl, 100 mM LiCl, pH 7.4; NaCl variant: 20 mM NaPi, 100 mM NaCl, pH 7.4); NMR: 20 mM NaPi, 100 mM KCl, 7.5% D2O, pH 7.4, 4-50 C. The conditions noted are these: protein: recombinant; tags: none (His6-SUMO cleaved); chain copies: 2; label: 5' 6-FAM.

The target in data set [8] is T1, Znf706. Nature of the data set: NMR; 100 mM KCl; FP/anisotropy: 20 mM NaPi, 100 mM KCl, 0.05% NaN3, pH 7.4, 25 C (LiCl variant: 20 mM Tris-HCl, 100 mM LiCl, pH 7.4; NaCl variant: 20 mM NaPi, 100 mM NaCl, pH 7.4); NMR: 20 mM NaPi, 100 mM KCl, 7.5% D2O, pH 7.4, 4-50 C. The conditions noted are these: protein: recombinant; tags: none (His6-SUMO cleaved); chain copies: 2; hairpin.

Data set [9] concerns the target T1, Znf706. Nature of the data set: fluorescence polarization; 100 mM KCl; range over all G4s; strong; exact value in figure; FP/anisotropy: 20 mM NaPi, 100 mM KCl, 0.05% NaN3, pH 7.4, 25 C (LiCl variant: 20 mM Tris-HCl, 100 mM LiCl, pH 7.4; NaCl variant: 20 mM NaPi, 100 mM NaCl, pH 7.4); NMR: 20 mM NaPi, 100 mM KCl, 7.5% D2O, pH 7.4, 4-50 C. The conditions noted are these: protein: recombinant; tags: none (His6-SUMO cleaved); chain copies: 2; label: 5' 6-FAM; parallel G4.

Consider GGTTGGGGTTGTTTTCAACCCCAACC (structured_DNA) [GGGG hairpin], for which, in the data set with Znf706 [1], the binding result is “no binding”.

On to TAGGGAGGGTAGGGAGGGT (structured_DNA) [cMyc (Pu19_A2A11)], for which the binding result in the data set with Znf706 A2C-MTSL and with Znf706 A2C-AF488 (parallel G4) was “binds” each time.

Consider TTGGGTTAGGGTTAGGGTTAGGGA (structured_DNA) [hTel, 6-FAM], for which the Kd with Znf706 [2] was roughly 4.47 µM.

Turning to GGGCGCGGGAGGAAGGGGGCGGG (structured_DNA) [Bcl2WT, 6-FAM], the Kd was roughly 4.47 µM in the data set with Znf706 [3] and roughly 17.2 µM in data set [4] (hybrid G4).

Turning to UAGGGUUAGGGUUAGGGUUAGGG (structured_RNA) [TERRA, 6-FAM], the Kd with Znf706 [5] is roughly 4.47 µM.

B1: Bcl2SH duplex (dsDNA)
DNA 1: AGGAGGGGGGCGGGA
DNA 2: TCCCGCCCCCCTCCT
On to B1, for which the binding result in the data set with Znf706 [6] was “no binding”.

As to GGCGAGGAGGGGCGTGGCCGGC (structured_DNA) [Kit*, 6-FAM], the Kd with Znf706 [7] is roughly 4.47 µM.

As for GGAAGGAAGGTTTTCCTTCCTTCC (structured_DNA) [GGA hairpin], in the data set with Znf706 [8], the binding result is recorded as “no binding”.

As for AGGAGGGGGGCGGGA (structured_DNA) [Bcl2SH, 6-FAM], the Kd in data set [4] (parallel G4) is roughly 17.2 µM; in the data set with Znf706 [9], roughly 4.47 µM.

On to TAGGGAGGGTAGGGAGGGT (structured_DNA) [cMyc (Pu19_A2A11), 6-FAM], for which the Kd was roughly 17.2 µM in data set [4] (parallel G4) and roughly 4.47 µM in the data set with Znf706 [9].

For the molecule GGGGCCGGGGCCGGGGCCGGGGCC (structured_DNA) [G4C2 4-repeat], the binding result with Znf706 A2C-AF488 was “binds”.

As a reminder, the Kd is the concentration at which binding is half-saturated.
